± gives the standard deviation of the averaged measurements.
B1: library; a variant is named by its letters at N, in order (parent)
chain: GCUGUCACCGAGAAACUGUGAAGUAUAUCUUAAACCUGGGCACUUAAAAGAUAUAUGGAGUUAGUAGUGCAACCUGCUCGGUCUGAUGAGUCCNNNNNNGGACGAAACAGC

What was measured:
[1] = variants of: B1; assay: normalized RNA/DNA level without ligand (relative to sTRSVctl = 100) (log10 (% of sTRSVctl)); HEK293T; ligand: cyclic di-GMP (c-di-GMP-II aptamer); higher = less ribozyme self-cleavage, higher mRNA level; conditions: reporter: mCherry (pCS4076), ligand present: no
Method in brief: (§1)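 HEK293T cells were transfected with library plasmids carrying ribozyme switches linked to an mCherry reporter, or an eGFP reporter in some ligand experiments, at 4 µg per well of a 6-well plate, with any ligand added 1 h beforehand. After 72 h, total RNA was extracted with EDTA, reverse-transcribed, amplified, barcoded and sequenced. RNA level was defined as RNA reads over DNA reads, normalized to a spiked-in non-cleaving sequence or to the top-ranked sequences. That value was multiplied by 100 and converted to log10, the top set was 25 sequences, and only sequences with ≥100 DNA reads were retained.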

[2] = variants of: B1; assay: normalized RNA/DNA level with ligand (relative to sTRSVctl = 100) (log10 (% of sTRSVctl)); HEK293T; ligand: cyclic di-GMP (c-di-GMP-II aptamer); ligand concentration (+) RNA-Seq: 1 mM; higher = less ribozyme self-cleavage, higher mRNA level; conditions: reporter: mCherry (pCS4076), ligand present: yes
Method in brief: as §1

GCUGUCACCGAGAAACUGUGAAGUAUAUCUUAAACCUGGGCACUUAAAAGAUAUAUGGAGUUAGUAGUGCAACCUGCUCGGUCUGAUGAGUCCAGUAUUGGACGAAACAGC [AGUAUU] was tested, and the “normalized RNA/DNA level without ligand (log10)” value [1] was 1.68 ± 0.037 and the “normalized RNA/DNA level with ligand (log10)” value [2] was 1.83 ± 0.1.

In the case of GCUGUCACCGAGAAACUGUGAAGUAUAUCUUAAACCUGGGCACUUAAAAGAUAUAUGGAGUUAGUAGUGCAACCUGCUCGGUCUGAUGAGUCCAGUAUAGGACGAAACAGC [AGUAUA], the “normalized RNA/DNA level without ligand (log10)” value [1] is reported as 1.47 ± 0.015 and the “normalized RNA/DNA level with ligand (log10)” value [2] is reported as 1.69 ± 0.11.

With GCUGUCACCGAGAAACUGUGAAGUAUAUCUUAAACCUGGGCACUUAAAAGAUAUAUGGAGUUAGUAGUGCAACCUGCUCGGUCUGAUGAGUCCAGUAUCGGACGAAACAGC [AGUAUC] the “normalized RNA/DNA level without ligand (log10)” value [1] was 1.68 ± 0.022 and the “normalized RNA/DNA level with ligand (log10)” value [2] was 1.81 ± 0.13.

GCUGUCACCGAGAAACUGUGAAGUAUAUCUUAAACCUGGGCACUUAAAAGAUAUAUGGAGUUAGUAGUGCAACCUGCUCGGUCUGAUGAGUCCAGUAUGGGACGAAACAGC [AGUAUG] was tested, and the “normalized RNA/DNA level without ligand (log10)” value [1] was 1.54 ± 0.085 and the “normalized RNA/DNA level with ligand (log10)” value [2] was 1.75 ± 0.087.

In the case of GCUGUCACCGAGAAACUGUGAAGUAUAUCUUAAACCUGGGCACUUAAAAGAUAUAUGGAGUUAGUAGUGCAACCUGCUCGGUCUGAUGAGUCCCGUAUUGGACGAAACAGC [CGUAUU], the “normalized RNA/DNA level without ligand (log10)” value [1] is reported as 1.33 ± 0.083 and the “normalized RNA/DNA level with ligand (log10)” value [2] is reported as 1.57 ± 0.11.

GCUGUCACCGAGAAACUGUGAAGUAUAUCUUAAACCUGGGCACUUAAAAGAUAUAUGGAGUUAGUAGUGCAACCUGCUCGGUCUGAUGAGUCCCGUAUCGGACGAAACAGC [CGUAUC] was tested, and the “normalized RNA/DNA level without ligand (log10)” value [1] was 1.58 ± 0.045 and the “normalized RNA/DNA level with ligand (log10)” value [2] was 1.76 ± 0.098.

GCUGUCACCGAGAAACUGUGAAGUAUAUCUUAAACCUGGGCACUUAAAAGAUAUAUGGAGUUAGUAGUGCAACCUGCUCGGUCUGAUGAGUCCCGUAUGGGACGAAACAGC [CGUAUG] was tested, and the “normalized RNA/DNA level without ligand (log10)” value [1] was 1.73 ± 0.019 and the “normalized RNA/DNA level with ligand (log10)” value [2] was 1.86 ± 0.13.

In the case of GCUGUCACCGAGAAACUGUGAAGUAUAUCUUAAACCUGGGCACUUAAAAGAUAUAUGGAGUUAGUAGUGCAACCUGCUCGGUCUGAUGAGUCCUGUAUGGGACGAAACAGC [UGUAUG], the “normalized RNA/DNA level without ligand (log10)” value [1] is reported as 1.75 ± 0.045 and the “normalized RNA/DNA level with ligand (log10)” value [2] is reported as 1.9 ± 0.13.

GCUGUCACCGAGAAACUGUGAAGUAUAUCUUAAACCUGGGCACUUAAAAGAUAUAUGGAGUUAGUAGUGCAACCUGCUCGGUCUGAUGAGUCCUGUAUCGGACGAAACAGC [UGUAUC] was tested, and the “normalized RNA/DNA level without ligand (log10)” value [1] was 1.734 ± 0.0024 and the “normalized RNA/DNA level with ligand (log10)” value [2] was 1.87 ± 0.11.

In the case of GCUGUCACCGAGAAACUGUGAAGUAUAUCUUAAACCUGGGCACUUAAAAGAUAUAUGGAGUUAGUAGUGCAACCUGCUCGGUCUGAUGAGUCCUGUAUUGGACGAAACAGC [UGUAUU], the “normalized RNA/DNA level without ligand (log10)” value [1] is reported as 1.73 ± 0.016 and the “normalized RNA/DNA level with ligand (log10)” value [2] is reported as 1.9 ± 0.091.

GCUGUCACCGAGAAACUGUGAAGUAUAUCUUAAACCUGGGCACUUAAAAGAUAUAUGGAGUUAGUAGUGCAACCUGCUCGGUCUGAUGAGUCCGGUAUUGGACGAAACAGC [GGUAUU] was tested, and the “normalized RNA/DNA level without ligand (log10)” value [1] was 1.61 ± 0.056 and the “normalized RNA/DNA level with ligand (log10)” value [2] was 1.8 ± 0.11.

With GCUGUCACCGAGAAACUGUGAAGUAUAUCUUAAACCUGGGCACUUAAAAGAUAUAUGGAGUUAGUAGUGCAACCUGCUCGGUCUGAUGAGUCCGGUAUGGGACGAAACAGC [GGUAUG] the “normalized RNA/DNA level without ligand (log10)” value [1] was 1.59 ± 0.093 and the “normalized RNA/DNA level with ligand (log10)” value [2] was 1.74 ± 0.04.

For GCUGUCACCGAGAAACUGUGAAGUAUAUCUUAAACCUGGGCACUUAAAAGAUAUAUGGAGUUAGUAGUGCAACCUGCUCGGUCUGAUGAGUCCGGUAUAGGACGAAACAGC [GGUAUA], the “normalized RNA/DNA level without ligand (log10)” value [1] was 1.5 ± 0.066 and the “normalized RNA/DNA level with ligand (log10)” value [2] was 1.72 ± 0.025.

In the case of GCUGUCACCGAGAAACUGUGAAGUAUAUCUUAAACCUGGGCACUUAAAAGAUAUAUGGAGUUAGUAGUGCAACCUGCUCGGUCUGAUGAGUCCCGUAGUGGACGAAACAGC [CGUAGU], the “normalized RNA/DNA level without ligand (log10)” value [1] is reported as 1.69 ± 0.041 and the “normalized RNA/DNA level with ligand (log10)” value [2] is reported as 1.82 ± 0.13.

For GCUGUCACCGAGAAACUGUGAAGUAUAUCUUAAACCUGGGCACUUAAAAGAUAUAUGGAGUUAGUAGUGCAACCUGCUCGGUCUGAUGAGUCCCGUAGGGGACGAAACAGC [CGUAGG], the “normalized RNA/DNA level without ligand (log10)” value [1] was 1.71 ± 0.033 and the “normalized RNA/DNA level with ligand (log10)” value [2] was 1.82 ± 0.14.

With GCUGUCACCGAGAAACUGUGAAGUAUAUCUUAAACCUGGGCACUUAAAAGAUAUAUGGAGUUAGUAGUGCAACCUGCUCGGUCUGAUGAGUCCCGUAGCGGACGAAACAGC [CGUAGC] the “normalized RNA/DNA level without ligand (log10)” value [1] was 1.73 ± 0.062 and the “normalized RNA/DNA level with ligand (log10)” value [2] was 1.83 ± 0.055.

With GCUGUCACCGAGAAACUGUGAAGUAUAUCUUAAACCUGGGCACUUAAAAGAUAUAUGGAGUUAGUAGUGCAACCUGCUCGGUCUGAUGAGUCCCGUAGAGGACGAAACAGC [CGUAGA] the “normalized RNA/DNA level without ligand (log10)” value [1] was 1.44 ± 0.016 and the “normalized RNA/DNA level with ligand (log10)” value [2] was 1.64 ± 0.14.

GCUGUCACCGAGAAACUGUGAAGUAUAUCUUAAACCUGGGCACUUAAAAGAUAUAUGGAGUUAGUAGUGCAACCUGCUCGGUCUGAUGAGUCCAGUAGCGGACGAAACAGC [AGUAGC] was tested, and the “normalized RNA/DNA level without ligand (log10)” value [1] was 1.618 ± 0.0046 and the “normalized RNA/DNA level with ligand (log10)” value [2] was 1.8 ± 0.12.

GCUGUCACCGAGAAACUGUGAAGUAUAUCUUAAACCUGGGCACUUAAAAGAUAUAUGGAGUUAGUAGUGCAACCUGCUCGGUCUGAUGAGUCCAGUACUGGACGAAACAGC [AGUACU] was tested, and the “normalized RNA/DNA level without ligand (log10)” value [1] was 1.7515 ± 2.5e-05 and the “normalized RNA/DNA level with ligand (log10)” value [2] was 1.85 ± 0.089.

In the case of GCUGUCACCGAGAAACUGUGAAGUAUAUCUUAAACCUGGGCACUUAAAAGAUAUAUGGAGUUAGUAGUGCAACCUGCUCGGUCUGAUGAGUCCGGUAGCGGACGAAACAGC [GGUAGC], the “normalized RNA/DNA level without ligand (log10)” value [1] is reported as 1.671 ± 0.014 and the “normalized RNA/DNA level with ligand (log10)” value [2] is reported as 1.8 ± 0.12.

For GCUGUCACCGAGAAACUGUGAAGUAUAUCUUAAACCUGGGCACUUAAAAGAUAUAUGGAGUUAGUAGUGCAACCUGCUCGGUCUGAUGAGUCCGGUAGAGGACGAAACAGC [GGUAGA], the “normalized RNA/DNA level without ligand (log10)” value [1] was 1.34 ± 0.04 and the “normalized RNA/DNA level with ligand (log10)” value [2] was 1.55 ± 0.1.

For GCUGUCACCGAGAAACUGUGAAGUAUAUCUUAAACCUGGGCACUUAAAAGAUAUAUGGAGUUAGUAGUGCAACCUGCUCGGUCUGAUGAGUCCUGUCAAGGACGAAACAGC [UGUCAA], the “normalized RNA/DNA level without ligand (log10)” value [1] was 1.69 ± 0.048 and the “normalized RNA/DNA level with ligand (log10)” value [2] was 1.82 ± 0.096.

GCUGUCACCGAGAAACUGUGAAGUAUAUCUUAAACCUGGGCACUUAAAAGAUAUAUGGAGUUAGUAGUGCAACCUGCUCGGUCUGAUGAGUCCUGUAGCGGACGAAACAGC [UGUAGC] was tested, and the “normalized RNA/DNA level without ligand (log10)” value [1] was 1.73 ± 0.043 and the “normalized RNA/DNA level with ligand (log10)” value [2] was 1.83 ± 0.15.

In the case of GCUGUCACCGAGAAACUGUGAAGUAUAUCUUAAACCUGGGCACUUAAAAGAUAUAUGGAGUUAGUAGUGCAACCUGCUCGGUCUGAUGAGUCCUGUAGGGGACGAAACAGC [UGUAGG], the “normalized RNA/DNA level without ligand (log10)” value [1] is reported as 1.72 ± 0.035 and the “normalized RNA/DNA level with ligand (log10)” value [2] is reported as 1.85 ± 0.072.

In the case of GCUGUCACCGAGAAACUGUGAAGUAUAUCUUAAACCUGGGCACUUAAAAGAUAUAUGGAGUUAGUAGUGCAACCUGCUCGGUCUGAUGAGUCCUGUAGAGGACGAAACAGC [UGUAGA], the “normalized RNA/DNA level without ligand (log10)” value [1] is reported as 1.67 ± 0.045 and the “normalized RNA/DNA level with ligand (log10)” value [2] is reported as 1.82 ± 0.12.

With GCUGUCACCGAGAAACUGUGAAGUAUAUCUUAAACCUGGGCACUUAAAAGAUAUAUGGAGUUAGUAGUGCAACCUGCUCGGUCUGAUGAGUCCGGUCAAGGACGAAACAGC [GGUCAA] the “normalized RNA/DNA level without ligand (log10)” value [1] was 1.4 ± 0.095 and the “normalized RNA/DNA level with ligand (log10)” value [2] was 1.64 ± 0.092.

Reference: the supplement of paper PMC6757056
